One molecule from paper PMC3847722 (Toxins, 2013) can be followed below.

In the test the target is T1, botulinum neurotoxin serotype B (Clostridium botulinum., UniProt P10844).
T1 construct: source: bought: Metabiologics Inc
Description: BLI; […], dissociation in PBS 1800 s; 1:1 model, […]. The note with it: both partners purified. In general terms: BLI is a label-free optical method that tracks binding on a fibre tip over time.

B1: MCS6-27 (antibody, V domains shown)
VH: EVQLEQSGPGLVKPSQSLSLTCTVTGYSITNDYAWNWIRQFPGNKLEWMGYINYSGTTSYNPSLKSRISITRDTSKNQFFLQFNSVTTEDTATYYCARSPLAYWGQGTLVTVSA
VL: DIVLTQTPASLSVSVGETVTITCRASENIYSHLAWYQQKQGKSPQLLVYTATNLADGVPSRFSGRGSGTQYSLKINSLQSEDFGIYFCQHFWGTPWTFGGGTKLEIK
notes: also called mAb MCS6-27; mAb6-27
The term Kd denotes a measure of binding affinity in units of concentration. Low readings indicate higher affinity, high ones lower affinity. As to B1, the affinity, expressed as Kd, was 0.086 nM.
